Reference: article doi:10.1101/2020.08.21.260711, “Eukaryotic translation initiation factor 5A and its hypusination play an important role in proliferation and differentiation of the human enteric protozoan parasite Entamoeba histolytica” (bioRxiv, 2020)

Molecular target: T1, Entamoeba histolytica deoxyhypusine synthase 1 (EhDHS1) with the amino-terminal His-tag (E. histolytica, UniProt C4LXB8 1-331)
T1 sequence (looked up): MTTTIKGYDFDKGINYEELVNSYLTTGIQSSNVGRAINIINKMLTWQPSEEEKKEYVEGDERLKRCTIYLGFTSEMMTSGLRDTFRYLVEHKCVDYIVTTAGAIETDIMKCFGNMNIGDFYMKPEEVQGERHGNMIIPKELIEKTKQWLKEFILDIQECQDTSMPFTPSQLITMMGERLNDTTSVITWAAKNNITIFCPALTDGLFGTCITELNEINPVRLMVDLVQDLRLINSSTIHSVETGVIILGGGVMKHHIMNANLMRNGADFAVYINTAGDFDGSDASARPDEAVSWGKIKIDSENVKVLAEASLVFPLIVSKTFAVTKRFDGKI
Assay: cell-based or functional assay

B1: Entamoeba histolytica deoxyhypusine synthase 2 (EhDHS2) with the carboxyl-terminal S-tag (enzyme, E. histolytica, UniProt C4M2N7 1-336, looked up)
chain: MSITGEEFAKVTSKVLGESKEYKGEKCIGYDFDNGVDFNKVMEKMKYTGFQALNLGLCIEQVNEMRKNHAKIFLGMSSNIVSSGLREVIHYLVKNKFVDAIVVTAGGIEEDFIKTMHPTLLGDFYFKGKELYPNGYNRIGNLILPNSNYCEFEDWMDPLLLECLKEQNEHGVHWTPSKLVHKMGESINNESSIYYWAAKNNIPVFSPAITDGSIGDMIFFFSYKNEGLVLDLVQDVIKIDEMAFNAEKVGCLLVGAGIAKHHILNAMKRRGGCDYCAMLSTSIECDASDAGSEIAADRTKGFFKPECNPAKVIGDATILLPLIVASTFAQKEEPTK
notes: EhDHS2 gene amplified by PCR, stop codon removed, cloned into AatII-XhoI of pETDuet-EhDHS1; The stop codon was removed to fuse the gene with the C-terminal S-Tag of pETDuet; also called S-tag DHS2; EHI_006030; source: E. coli BL21 (DE3), coexpressed with EhDHS1 from pETDuet-EhDHS1/2, in lysate, then copurified on Ni2+-NTA; not shown: S-tag, C-terminal, kept
- DHS enzymatic activity (1,3-diaminopropane production) of coexpressed EhDHS1/EhDHS2 as compared to EhDHS1 alone, with EheIF5A1 or EheIF5A2 as substrates: > 2000 fold
